Test results as given in patent US20040234623A1.

Target: rabbit anti-human IDO polyclonal antibody (raised against the KLH-conjugated peptide of SEQ ID NO: 1, affinity purified)
Experiment: flow cytometry of IFNgamma-activated monocyte-derived macrophages; antibody pre-adsorbed with immunizing peptide (competition against cellular IDO)

percent reduction of flow cytometry signal: > 95%
Binder: LIESGQLRERVEKLNMLC [immunizing peptide … (SEQ ID NO: 1), based on human IDO]
